Measured values as given in article PMC10465942, “N-acetylmuramic acid recognition by MurK kinase from the MurNAc auxotrophic oral pathogen Tannerella forsythia” (The Journal of Biological Chemistry, 2023).

B1: MurK (murein sugar kinase) (Tannerella forsythia 92A2) (protein)
chain: MILIADSGSTKTHWNVLDRGQVVGEIFTKGMNPFFQTPEEMGREIERTLLPQLNSNRFCEVHFFGAGCIPEKVPIVRNVLKGCLDVSSLIEVDTDMLAAAKASCGRSPGIVCIMGTGSNSCFYDGEKITANVSPLGFILGDEGSGAVLGKLLIGDLLKNQMGEELKEKFLRQYELTPANIIERVYRQPFPNRFLAGISPFLAENIEHPAIHSLVLNAFKSFLTRNVMQFDYTRYKAHFIGSVAYYYKDILEEAAAATGIRTGTIVRNPMEGLRTYYSTVAETV
notes: recombinant His6-tagged protein expressed in E. coli
B2: K1058 (Tannerella forsythia 92A2) (protein)
chain: MKLIAESGSTKTEWSLVEGEHLIQRVFTEGLNPFFQTRREISRSIRLGLPDSFFKRKLEQVFFYGAGCTSAEKKSVVEASLVAQFKTPAYVESDLLAAARGLFQHDSGIACILGTGSNSCFYDGHVIVKNVRAGGYILGDEGSGAALGKQFLSDVLKKLAPQVLIDDFFEKYDLTPHDVMDVVYNRPFPNRFLAEQSCFLADYLRLDYVKGLLLSNLRSFFLRNVMQYDYLNYPIRFVGSVAYNYADLLHQVGKEFGVELSVVEETPMGGLIKYHAFPPDDPES
notes: as for B1

What was measured:
purified protein [1] = substrate: CC(=O)N[C@@H]1[C@@H](O[C@H](C)C(=O)O)[C@H](O)[C@@H](CO)O[C@H]1O; test: purified protein; design: species or system Tannerella forsythia; conditions: active site, MurNAc-binding site; hydrogen bonds to G67, D95, N119, D141; lactyl ether at S133, P134, L135
purified protein [2] = substrate: CC(=O)N[C@@H]1[C@@H](O[C@H](C)C(=O)O)[C@H](O)[C@@H](CO)O[C@H]1O; test: purified protein; assay type: binding, Tannerella forsythia; conditions: active site, very similar to MurK MurNAc site; T69, R132, A133 differ

| Protein | Km (purified protein [1]) | kcat (purified protein [1]) | kcat/Km (purified protein [1]) | Km (purified protein [2]) | kcat (purified protein [2]) | kcat/Km (purified protein [2]) |
| --- | --- | --- | --- | --- | --- | --- |
| B1 | 180 ± 40 µM | 42 ± 4.2 s⁻¹ | 230000 ± 56000 M⁻¹ s⁻¹ |  |  |  |
| B2 |  |  |  | 28 ± 10 µM | 0.18 ± 0.01 s⁻¹ | 6400 ± 2900 M⁻¹ s⁻¹ |
